Test results from article PMC8982139.

Tests used:
[1] = molecular target: C.1086 NFL (native flexibly linked, with I559P) gp140 trimer (HIV-1 (clade C, C.1086)); test: SEC
[2] = molecular target: C.1086 SOSIP gp140 (HIV-1 (clade C, C.1086)); test: SEC
[3] = molecular target: C.1086 UFO-v2 gp140 trimer (UFO with E64K/T316W/A433P) (HIV-1 (clade C, C.1086)); test: SEC
[4] = molecular target: C.1086 UFO-v2-RQH^173 gp140 trimer (UFO-v2 with K166R/H170Q, H173 kept) (HIV-1 (clade C, C.1086)); test: native gel or EMSA
[5] = molecular target: C.1086 UFO-v2-RQH^173 gp140 trimer (UFO-v2 with K166R/H170Q, H173 kept) (HIV-1 (clade C, C.1086)); test: negative-stain electron microscopy
[6] = molecular target: C.1086 UFO-v2-RQH^173 gp140 trimer (UFO-v2 with K166R/H170Q, H173 kept) (HIV-1 (clade C, C.1086)); test: SEC
[7] = molecular target: C.1086 UFO-v2-RQY^173 gp140 trimer (UFO-v2 with K166R/H170Q/H173Y) (HIV-1 (clade C, C.1086)); test: native gel or EMSA
[8] = molecular target: C.1086 UFO-v2-RQY^173 gp140 trimer (UFO-v2 with K166R/H170Q/H173Y) (HIV-1 (clade C, C.1086)); test: negative-stain electron microscopy

Substance: C.1086 NFL (native flexibly linked, with I559P) gp140 trimer
- stoichiometry N [1]: 3

Substance: C.1086 SOSIP gp140
- stoichiometry N [2]: 3

Substance: C.1086 UFO-v2 gp140 trimer (UFO with E64K/T316W/A433P)
- stoichiometry N [3]: 3

Substance: C.1086 UFO-v2-RQH^173 gp140 trimer (UFO-v2 with K166R/H170Q, H173 kept)
- stoichiometry N [4]: 3
- stoichiometry N [5]: 3
- stoichiometry N [6]: 3

Substance: C.1086 UFO-v2-RQY^173 gp140 trimer (UFO-v2 with K166R/H170Q/H173Y)
- stoichiometry N [7]: 3
- stoichiometry N [8]: 3
